Reference: patent US20130078247A1

Biological target: cynomolgus Ang2 (cynomolgus)
Assay: competition ELISA: cAng2 binding to cTie2

IC50 (read off the curve): 10 nM
B1: 00050 (VHH)
VHH: EVQLVESGGGLVQPGGSLRLSCAASGFTFDDYALGWFRQAPGKEREGVSCIRCSDGSTYYADSVKGRFTISSDNSKNTVYLQMNSLRPEDTAVYYCAASIVPRSKLEPYEYDAWGQGTLVTVSS
